This is an account of results in article PMC9938351, “Structural insights into ribonucleoprotein dissociation by nucleocapsid protein interacting with non-structural protein 3 in SARS-CoV-2” (Communications Biology, 2020).

One may read the Kd as the constant that tells how readily two partners part at equilibrium. Lower therefore signals higher affinity. What is called stoichiometry N is the number of molecules, sites or subunits per partner or assembly.

One assay deals with MERS-CoV N protein (MERS-CoV, UniProt K9N4V7 1-411). The assay is described as follows: ITC. As to conditions: both partners purified.
A further assay has as its target SARS-CoV N protein (SARS-CoV, UniProt P59595 1-422). The assay is described as follows: ITC. As to conditions: both partners purified.

Chain of SARS-CoV N protein (P59595 whole entry): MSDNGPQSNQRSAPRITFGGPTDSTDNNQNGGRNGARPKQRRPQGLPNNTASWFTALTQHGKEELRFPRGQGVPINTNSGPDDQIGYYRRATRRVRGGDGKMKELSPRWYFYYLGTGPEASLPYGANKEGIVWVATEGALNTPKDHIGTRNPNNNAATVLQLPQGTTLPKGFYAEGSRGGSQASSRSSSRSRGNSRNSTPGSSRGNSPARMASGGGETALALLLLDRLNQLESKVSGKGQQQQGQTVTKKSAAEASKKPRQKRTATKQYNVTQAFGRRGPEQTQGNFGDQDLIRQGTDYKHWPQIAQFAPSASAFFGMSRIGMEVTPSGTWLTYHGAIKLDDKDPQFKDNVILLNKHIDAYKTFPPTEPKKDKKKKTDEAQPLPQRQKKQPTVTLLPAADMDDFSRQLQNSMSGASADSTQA

B1: MERS-CoV Ubl1 of Nsp3 (domain or fragment)
chain: APVKKVAFGGDQVHEVAAVRSVTVEYNIHAVLDTLLASSSLRTFVVDKSLSIEEFADVVKEQVSDLLVKLLRGMPIPDFDLDDFIDAPCYCFNAEGDASWSSTMIFSLHPVEC
Turning to B1, in the assay with MERS-CoV N protein, the dissociation constant Kd worked out at 2.3 ± 0.6 µM, the dH was determined as 6.09 ± 0.311 kcal/mol and the “stoichiometry N” value amounted to 0.82 ± 0.02.

B2: SARS-CoV Ubl1 of Nsp3 (domain or fragment)
chain: APIKGVTFGEDTVWEVQGYKNVRITFELDERVDKVLNEKCSVYTVESGTEVTEFACVVAEAVVKTLQPVSDLLTNMGIDLDEWSVATFYLFDDAGEENFSSRMYCSFYPPD
Turning to B2, in the assay with SARS-CoV N protein, the dissociation constant Kd is 0.8 ± 0.2 µM, the dH was -13.4 ± 0.382 kcal/mol and the “stoichiometry N” value was 1 ± 0.02.
